Test results from PMC2132798 (The Journal of Cell Biology, 1998).

B1: Myo5p (1,082–1,219) (domain or fragment, S. cerevisiae, UniProt Q04439 1082-1219, looked up)
chain: SSKPKEPMFEAAYDFPGSGSPSELPLKKGDVIYITREEPSGWSLGKLLDGSKEGWVPTAYMKPHSGNNNIPTPPQNRDVPKPVLNSVQHDNTSANVIPAAAQASLGDGLANALAARANKMRLESDDEEANEDEEEDDW
B2: Myo3p (1,118–1,271) (domain or fragment, S. cerevisiae, UniProt P36006 1118-1271, looked up)
chain: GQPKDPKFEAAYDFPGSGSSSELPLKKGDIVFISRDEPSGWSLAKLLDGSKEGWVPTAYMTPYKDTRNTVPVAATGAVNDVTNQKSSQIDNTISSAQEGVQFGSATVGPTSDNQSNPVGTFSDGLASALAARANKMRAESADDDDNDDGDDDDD
B3: Vrp1p (195–817) (domain or fragment, S. cerevisiae, UniProt P37370 195-817, looked up)
chain: HMPSVRPAHRSHQRKSSNISLPSVSAPPLPSASLPTHVSNPPQAPPPPPTPTIGLDSKNIKPTDNAVSPPSSEVPAGGLPFLAEINARRSERGAVEGVSSTKIQTENHKSPSQPPLPSSAPPIPTSHAPPLPPTAPPPPSLPNVTSAPKKATSAPAPPPPPLPAAMSSASTNSVKATPVPPTLAPPLPNTTSVPPNKASSMPAPPPPPPPPPGAFSTSSALSASSIPLAPLPPPPPPSVATSVPSAPPPPPTLTTNKPSASSKQSKISSSSSSSAVTPGGPLPFLAEIQKKRDDRFVVGGDTGYTTQDKQEDVIGSSKDDNVRPSPISPSINPPKQSSQNGMSFLDEIESKLHKQTSSNAFNAPPPHTDAMAPPLPPSAPPPPITSLPTPTASGDDHTNDKSETVLGMKKAKAPALPGHVPPPPVPPVLSDDSKNNVPAASLLHDVLPSSNLEKPPSPPVAAAPPLPTFSAPSLPQQSVSTSIPSPPPVAPTLSVRTETESISKNPTKSPPPPPSPSTMDTGTSNSPSKNLKQRLFSTGGSTLQHKHNTHTNQPDVDVGRYTIGGSNSIVGAKSGNERIVIDDSRFKWTNVSQMPKPRPFQNKTKLYPSGKGSSVPLDLTLFT
B4: Vrp1p (1–200) (domain or fragment, S. cerevisiae, UniProt P37370 1-200, looked up)
chain: MAGAPAPPPPPPPPALGGSAPKPAKSVMQGRDALLGDIRKGMKLKKAETNDRSAPIVGGGVVSSASGSSGTVSSKGPSMSAPPIPGMGAPQLGDILAGGIPKLKHINNNASTKPSPSASAPPIPGAVPSVAAPPIPNAPLSPAPAVPSIPSSSAPPIPDIPSSAAPPIPIVPSSPAPPLPLSGASAPKVPQNRPHMPSVR

Assays:
Test in all cases: two-hybrid
Vrp1p (1–200) = target: B4
Vrp1p (195–817) = target: B3
Myo5p (1,082–1,219) = target: B1
Myo3p (1,118–1,271) = target: B2

lacZ activity (Miller units) (Myo5p (1,082–1,219)) | lacZ activity (Miller units) (Myo3p (1,118–1,271)) | Binder | lacZ activity (Miller units) (Vrp1p (1–200)) | lacZ activity (Miller units) (Vrp1p (195–817))
– | – | B1 | 1060 ± 149 Miller units | 345 ± 7.3 Miller units
– | – | B2 | 1610 ± 264 Miller units | 96.3 ± 21.8 Miller units
28.5 ± 2 Miller units | 74.5 ± 4.3 Miller units | B3 | – | –
140 ± 2.3 Miller units | 254 ± 27.1 Miller units | B4 | – | –
